Measured values taken from patent US11653679B2, “High-purity steviol glycosides” (PureCircle Sdn Bhd, priority 2014, dated 2023).

Assays:
[1] = Transformation of Rebaudioside D to Rebaudioside M with UGT76G1 (Examples 6, 13), HPLC; assay type: biochemical; conditions: per mL of lysate; 1 U transforms 1 μmol in 1 hour at 30° C. and pH 7.2
Procedure: The total volume of the reaction was 2 mL with the following composition: 50 mM sodium phosphate buffer pH 7.2, 3 mM MgCl2, 3.8 mM UDP-glucose, 0.5 mM Rebaudioside D and 180 μL of in-vitro produced UGT76G1. The reactions were run at 30° C. on an orbitary shaker at 135 rpm. For each sample, 400 μL of reaction mixture was quenched with 40 μL of 2N H2SO4 and 360 μL of 60% MeOH. After centrifugation, the supernatant was analyzed by HPLC (CAD).
(§1) Activity tests were performed on a 5 mL scale with 500 μL of thawed lysate for the transformation of Stevioside to Rebaudioside A and Rebaudioside D to Rebaudioside M using 0.5 mM of substrate, 2.5 mM of UDP-Glucose and 3 mM MgCl2 in 50 mM Sodium Phosphate buffer at pH 7.2. Samples were taken and analyzed by HPLC.

[2] = Transformation of Stevioside to Rebaudioside A with UGT76G1 lysate (Examples 4, 13), HPLC; assay type: biochemical; conditions: per mL of lysate; 1 U transforms 1 μmol in 1 hour at 30° C. and pH 7.2
Procedure: The total volume of the reaction was 5.0 mL with the following composition: 50 mM sodium phosphate buffer pH 7.2, 3 mM MgCl2, 2.5 mM UDP-glucose, 0.5 mM Stevioside and 500 μl, of UGT76G1 thawed lysate. The reactions were run at 30° C. on an orbitary shaker at 135 rpm. For each sample, 460 μL of the reaction mixture was quenched with 40 μL of 2N H2SO4 and 420 μL of methanol/water (6/4). The samples were immediately centrifuged and kept at 10° C. before analysis by HPLC (CAD).
as §1

Molecule	Transformation activity Rebaudioside D to Rebaudioside M [1] [U mL^−1]	Transformation activity Stevioside to Rebaudioside A [2] [U mL^−1]
Example 12: UGT76G1 lysate prepared by pCOLDIII plasmid and Origami2 (DE3) expression strain (protein, UniProt Q6VAB4 1-458, looked up, E. coli lysate, pCOLDIII, UGT76G1 lysate prepared by pCOLDIII plasmid and Origami2 (DE3) expression strain) UDP-glycosyltransferase 76G1: MENKTETTVRRRRRIILFPVPFQGHINPILQLANVLYSKGFSITIFHTNFNKPKTSNYPHFTFRFILDNDPQDERISNLPTHGPLAGMRIPIINEHGADELRRELELLMLASEEDEEVSCLITDALWYFAQSVADSLNLRRLVLMTSSLFNFHAHVSLPQFDELGYLDPDDKTRLEEQASGFPMLKVKDIKSAYSNWQILKEILGKMIKQTKASSGVIWNSFKELEESELETVIREIPAPSFLIPLPKHLTASSSSLLDHDRTVFQWLDQQPPSSVLYVSFGSTSEVDEKDFLEIARGLVDSKQSFLWVVRPGFVKGSTWVEPLPDGFLGERGRIVKWVPQQEVLAHGAIGAFWTHSGWNSTLESVCEGVPMIFSDFGLDQPLNARYMSDVLKVGVYLENGWERGEIANAIRRVMVDEEGEYIRQNARVLKQKADVSLMKGGSSYESLESLVSYISSL	0.20	37
Example 9: UGT76G1 lysate prepared by pMAL plasmid and BL21 expression strain (protein, UniProt Q6VAB4 1-458, looked up, E. coli lysate, pMAL vector, UGT76G1 lysate prepared by pMAL plasmid and BL21 expression strain) UDP-glycosyltransferase 76G1: MENKTETTVRRRRRIILFPVPFQGHINPILQLANVLYSKGFSITIFHTNFNKPKTSNYPHFTFRFILDNDPQDERISNLPTHGPLAGMRIPIINEHGADELRRELELLMLASEEDEEVSCLITDALWYFAQSVADSLNLRRLVLMTSSLFNFHAHVSLPQFDELGYLDPDDKTRLEEQASGFPMLKVKDIKSAYSNWQILKEILGKMIKQTKASSGVIWNSFKELEESELETVIREIPAPSFLIPLPKHLTASSSSLLDHDRTVFQWLDQQPPSSVLYVSFGSTSEVDEKDFLEIARGLVDSKQSFLWVVRPGFVKGSTWVEPLPDGFLGERGRIVKWVPQQEVLAHGAIGAFWTHSGWNSTLESVCEGVPMIFSDFGLDQPLNARYMSDVLKVGVYLENGWERGEIANAIRRVMVDEEGEYIRQNARVLKQKADVSLMKGGSSYESLESLVSYISSL	0.15	20
Example 7: UGT76G1 lysate prepared by pET30a+ plasmid and BL21 (DE3) expression strain (protein, UniProt Q6VAB4 1-458, looked up, E. coli lysate, pET30a+, UGT76G1 lysate prepared by pET30a+ plasmid and BL21 (DE3) expression strain) UDP-glycosyltransferase 76G1: MENKTETTVRRRRRIILFPVPFQGHINPILQLANVLYSKGFSITIFHTNFNKPKTSNYPHFTFRFILDNDPQDERISNLPTHGPLAGMRIPIINEHGADELRRELELLMLASEEDEEVSCLITDALWYFAQSVADSLNLRRLVLMTSSLFNFHAHVSLPQFDELGYLDPDDKTRLEEQASGFPMLKVKDIKSAYSNWQILKEILGKMIKQTKASSGVIWNSFKELEESELETVIREIPAPSFLIPLPKHLTASSSSLLDHDRTVFQWLDQQPPSSVLYVSFGSTSEVDEKDFLEIARGLVDSKQSFLWVVRPGFVKGSTWVEPLPDGFLGERGRIVKWVPQQEVLAHGAIGAFWTHSGWNSTLESVCEGVPMIFSDFGLDQPLNARYMSDVLKVGVYLENGWERGEIANAIRRVMVDEEGEYIRQNARVLKQKADVSLMKGGSSYESLESLVSYISSL	0.31	29
Example 8: UGT76G1 lysate prepared by pET30a+ plasmid and Tuner (DE3) expression strain (protein, UniProt Q6VAB4 1-458, looked up, E. coli Tuner (DE3) lysate, pET30a+, UGT76G1 lysate prepared by pET30a+ plasmid and Tuner (DE3) expression strain) UDP-glycosyltransferase 76G1: MENKTETTVRRRRRIILFPVPFQGHINPILQLANVLYSKGFSITIFHTNFNKPKTSNYPHFTFRFILDNDPQDERISNLPTHGPLAGMRIPIINEHGADELRRELELLMLASEEDEEVSCLITDALWYFAQSVADSLNLRRLVLMTSSLFNFHAHVSLPQFDELGYLDPDDKTRLEEQASGFPMLKVKDIKSAYSNWQILKEILGKMIKQTKASSGVIWNSFKELEESELETVIREIPAPSFLIPLPKHLTASSSSLLDHDRTVFQWLDQQPPSSVLYVSFGSTSEVDEKDFLEIARGLVDSKQSFLWVVRPGFVKGSTWVEPLPDGFLGERGRIVKWVPQQEVLAHGAIGAFWTHSGWNSTLESVCEGVPMIFSDFGLDQPLNARYMSDVLKVGVYLENGWERGEIANAIRRVMVDEEGEYIRQNARVLKQKADVSLMKGGSSYESLESLVSYISSL	0.40	33
Example 11: UGT76G1 lysate prepared by pCOLDIII plasmid and ArcticExpress expression strain (protein, UniProt Q6VAB4 1-458, looked up, E. coli ArcticExpress lysate, pCOLDIII, UGT76G1 lysate prepared by pCOLDIII plasmid and ArcticExpress expression strain) UDP-glycosyltransferase 76G1: MENKTETTVRRRRRIILFPVPFQGHINPILQLANVLYSKGFSITIFHTNFNKPKTSNYPHFTFRFILDNDPQDERISNLPTHGPLAGMRIPIINEHGADELRRELELLMLASEEDEEVSCLITDALWYFAQSVADSLNLRRLVLMTSSLFNFHAHVSLPQFDELGYLDPDDKTRLEEQASGFPMLKVKDIKSAYSNWQILKEILGKMIKQTKASSGVIWNSFKELEESELETVIREIPAPSFLIPLPKHLTASSSSLLDHDRTVFQWLDQQPPSSVLYVSFGSTSEVDEKDFLEIARGLVDSKQSFLWVVRPGFVKGSTWVEPLPDGFLGERGRIVKWVPQQEVLAHGAIGAFWTHSGWNSTLESVCEGVPMIFSDFGLDQPLNARYMSDVLKVGVYLENGWERGEIANAIRRVMVDEEGEYIRQNARVLKQKADVSLMKGGSSYESLESLVSYISSL	0.11	15
Example 10: UGT76G1 lysate prepared by pMAL plasmid and ArcticExpress expression strain (protein, UniProt Q6VAB4 1-458, looked up, E. coli lysate, pMAL, UGT76G1 lysate prepared by pMAL plasmid and ArcticExpress expression strain) UDP-glycosyltransferase 76G1: MENKTETTVRRRRRIILFPVPFQGHINPILQLANVLYSKGFSITIFHTNFNKPKTSNYPHFTFRFILDNDPQDERISNLPTHGPLAGMRIPIINEHGADELRRELELLMLASEEDEEVSCLITDALWYFAQSVADSLNLRRLVLMTSSLFNFHAHVSLPQFDELGYLDPDDKTRLEEQASGFPMLKVKDIKSAYSNWQILKEILGKMIKQTKASSGVIWNSFKELEESELETVIREIPAPSFLIPLPKHLTASSSSLLDHDRTVFQWLDQQPPSSVLYVSFGSTSEVDEKDFLEIARGLVDSKQSFLWVVRPGFVKGSTWVEPLPDGFLGERGRIVKWVPQQEVLAHGAIGAFWTHSGWNSTLESVCEGVPMIFSDFGLDQPLNARYMSDVLKVGVYLENGWERGEIANAIRRVMVDEEGEYIRQNARVLKQKADVSLMKGGSSYESLESLVSYISSL	0.25	15
